# Laboratory results: patent publication US20160257728A1 (JOINT CENTER FOR BIOSCIENCES, published 2016)
# T1: BMPRIb (ALK6) ECD-Fc (human, UniProt O00238 14-126)
# T1 construct: extracellular domain; Bought from R&D Systems as C-terminal Fc-tagged chimera; not shown: C-terminal human IgG1 Fc tag
# T1 sequence (looked up): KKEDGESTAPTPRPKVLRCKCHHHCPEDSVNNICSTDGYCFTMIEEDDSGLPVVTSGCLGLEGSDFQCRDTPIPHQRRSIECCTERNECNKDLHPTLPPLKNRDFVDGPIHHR
# T2: ActRIIb ECD-Fc (human, UniProt Q13705 19-137, limits assumed)
# T2 construct: extracellular domain; Bought from R&D Systems as C-terminal Fc-tagged chimera; not shown: C-terminal human IgG1 Fc tag
# T2 sequence (looked up): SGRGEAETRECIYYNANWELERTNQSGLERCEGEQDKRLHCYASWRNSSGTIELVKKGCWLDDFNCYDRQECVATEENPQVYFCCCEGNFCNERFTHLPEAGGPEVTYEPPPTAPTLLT
# T3: BMPRII ECD-Fc (human, UniProt Q13873 27-150, limits assumed)
# T3 construct: extracellular domain; Bought from R&D Systems as C-terminal Fc-tagged chimera; not shown: C-terminal human IgG1 Fc tag
# T3 sequence (looked up): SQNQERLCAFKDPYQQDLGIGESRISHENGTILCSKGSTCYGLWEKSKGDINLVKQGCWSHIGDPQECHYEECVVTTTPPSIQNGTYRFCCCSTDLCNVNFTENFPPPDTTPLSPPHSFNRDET
# B1: MB109 protein (bioactive recombinant human BMP-9 expressed in E. coli and refolded; functional dimer) (ligand)
# chain: MSAGAGSHCQKTSLRVNFEDIGWDSWIIAPKEYEAYECKGGCFFPLADDVTPTKHAIVQTLVHLKFPTKVGKACCVPTKLSPISVLYKDDMGVPTLKYHYEGMSVAECGCR
# notes: also called purified MB109
# B2: TGF-betaRI (ALK5) ECD-Fc (Fc fusion, UniProt P36897 34-126, looked up)
# chain: LQCFCHLCTKDNFTCVTDGLCFVSVTETTDKVIHNSMCIAEIDLIPRDRPFVCAPSSKTGSVTTTYCCNQDHCNKIELPTTVKSSPGLGPVEL
# notes: extracellular domain; Bought from R&D Systems as C-terminal Fc-tagged chimera; also called TGFβRI; not shown: C-terminal human IgG1 Fc tag
# B3: ActRIb (ALK4) ECD-Fc (Fc fusion, UniProt P36896 24-126, looked up)
# chain: SGPRGVQALLCACTSCLQANYTCETDGACMVSIFNLDGMEHHVRTCIPKVELVPAGKPFYCLSSEDLRNTHCCYTDYCNRIDLRVPSGHLKEPEHPSMWGPVE
# notes: extracellular domain; Bought from R&D Systems as C-terminal Fc-tagged chimera; not shown: C-terminal human IgG1 Fc tag
# B4: ActRIa (ALK2) ECD-Fc (Fc fusion, UniProt Q04771 21-123, looked up)
# chain: MEDEKPKVNPKLYMCVCEGLSCGNEDHCEGQQCFSSLSINDGFHVYQKGCFQVYEQGKMTCKTPPSPGQAVECCQGDWCNRNITAQLPTKGKSFPGTQNFHLE
# notes: as for B3
# B5: ALK7 ECD-Fc (Fc fusion, UniProt Q8NER5 22-113, looked up)
# chain: LSPGLKCVCLLCDSSNFTCQTEGACWASVMLTNGKEQVIKSCVSLPELNAQVFCHSSNNVTKTECCFTDFCNNITLHLPTASPNAPKLGPME
# notes: as for B3
# Assays:
# MISRII ECD-Fc = target: T4, MISRII ECD-Fc (human, UniProt Q16671 18-149, limits assumed); experiment: SPR (BIAcore 3000), ECD-Fc on CM5 chip, MB109 as analyte
# T4 construct: extracellular domain; Bought from R&D Systems as C-terminal Fc-tagged chimera; not shown: C-terminal human IgG1 Fc tag
# Experimental: (§1) The receptor ECDs were purchased from R&D Systems (Minneapolis, USA) as C-terminal Fc-tagged chimera. The binding affinities were measured using a BIAcore 3000 (GE Healthcare, USA) following a protocol described previously by Allendorph et al. with minor modification (see, e.g., Allendorph et al., Plos One 6(11):e26402 (2011), and Allendorph et al., Proceedings of the National Academy of Sciences of the United States of America 103(20):7643-7648, 2006). In brief, the ECD-Fc proteins were prepared in a pH 4.0 solution and captured on flow cell 2, 3 and 4 of the CM5 sensor chip at a flow rate of 10 μL/min until the density researched ˜1,000 response units. Flow cell 1 was left blank for background subtraction. For kinetic analysis, purified MB109 was prepared in a series of 2-fold dilution in an assay solution (10 mM HEPES, pH 7.4, 150 mM NaCl, 3.4 mM EDTA and 0.005% Tween-20) and injected over the flow cells at a flow rate of […]. All tests were performed using a set of 2-fold diluted protein concentrations from 20 to 0.3 nM plus the assay solution as a blank. The data fitting was performed using a minimum of 4 concentrations and a global 1:1 Langmuir binding with mass transfer model.
# (§2) To determine receptor binding specificity of MB109, purified MB109 was subjected to surface plasmon resonance analysis to determine its binding affinities to immobilized extracellular domains (ECDs) of Type I and Type II receptors, including ALK1, ActRIa (ALK2), ActRIb (ALK4), BMPRIa (ALK3), BMPRIb (ALK6), TGFβRI (ALK5), ALK7, ActRIIa, ActRIIb, BMPRII, TGF-βRII and MISRII. Among these receptor ECDs, MB109 had strong binding affinity only to ALK1, ActRIIb and BMPRII, while the binding to the other receptor ECDs were either very transient (to ActRIIa) or non-detectable (see TABLE 2).
# TGF-βRII ECD-Fc = target: T5, TGF-βRII ECD-Fc (human, UniProt P37173 23-166); experiment: as above
# T5 construct: extracellular domain; Bought from R&D Systems as C-terminal Fc-tagged chimera; not shown: C-terminal human IgG1 Fc tag
# Experimental: as §1, §2
# BMPRIa (ALK3) ECD-Fc = target: T6, BMPRIa (ALK3) ECD-Fc (human, UniProt P36894 24-152, limits assumed); experiment: as above
# T6 construct: extracellular domain; Bought from R&D Systems as C-terminal Fc-tagged chimera; not shown: C-terminal human IgG1 Fc tag
# Experimental: as §1, §2
# BMPRIb (ALK6) ECD-Fc = target: T1, BMPRIb (ALK6) ECD-Fc; experiment: as above
# Experimental: as §1, §2
# ActRIIb ECD-Fc = target: T2, ActRIIb ECD-Fc; experiment: SPR (BIAcore 3000), ECD-Fc on CM5 chip, MB109 as analyte, global 1:1 Langmuir with mass transfer
# Experimental: as §1, §2
# ActRIIa ECD-Fc = target: T7, ActRIIa ECD-Fc (human, UniProt P27037 20-135, limits assumed); experiment: as above
# T7 construct: extracellular domain; Bought from R&D Systems as C-terminal Fc-tagged chimera; not shown: C-terminal human IgG1 Fc tag
# Experimental: as §1, §2
# BMPRII ECD-Fc = target: T3, BMPRII ECD-Fc; experiment: as above
# Experimental: as §1, §2
# [1] = target: B1; experiment: SPR (BIAcore 3000), ECD-Fc on CM5 chip, MB109 as analyte
# Experimental: as §1, §2
# T7 sequence (P27037 20-135 limits assumed): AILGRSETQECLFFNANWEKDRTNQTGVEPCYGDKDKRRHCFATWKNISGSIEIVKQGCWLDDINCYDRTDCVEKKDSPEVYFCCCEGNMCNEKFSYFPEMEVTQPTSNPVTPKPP
# T6 sequence (P36894 24-152 limits assumed): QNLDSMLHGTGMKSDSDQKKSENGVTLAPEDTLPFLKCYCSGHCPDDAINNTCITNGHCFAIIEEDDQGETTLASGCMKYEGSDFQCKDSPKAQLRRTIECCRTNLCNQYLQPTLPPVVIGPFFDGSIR
# T4 sequence (Q16671 18-149 limits assumed): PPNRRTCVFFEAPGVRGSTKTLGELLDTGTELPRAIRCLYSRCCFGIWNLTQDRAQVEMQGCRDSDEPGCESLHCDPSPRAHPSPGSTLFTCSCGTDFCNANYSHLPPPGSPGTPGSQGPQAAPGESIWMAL
# T5 sequence (P37173 23-166): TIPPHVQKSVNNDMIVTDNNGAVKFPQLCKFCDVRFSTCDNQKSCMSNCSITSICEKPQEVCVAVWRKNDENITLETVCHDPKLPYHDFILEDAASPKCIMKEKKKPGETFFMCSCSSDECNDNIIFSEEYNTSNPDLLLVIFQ
binder,measurement,setting,value
B1,binding result,MISRII ECD-Fc,no binding (tested: 20 to 0.3 nM)
same,binding result,TGF-βRII ECD-Fc,no binding (tested: 20 to 0.3 nM)
same,binding result,BMPRIa (ALK3) ECD-Fc,no binding (tested: 20 to 0.3 nM)
same,binding result,BMPRIb (ALK6) ECD-Fc,no binding (tested: 20 to 0.3 nM)
same,Kd,ActRIIb ECD-Fc,0.154 nM
same,koff,ActRIIb ECD-Fc,0.00152 s⁻¹
same,kon,ActRIIb ECD-Fc,9.91e+06 M⁻¹ s⁻¹
same,Kd,ActRIIa ECD-Fc,4.27 nM
same,koff,ActRIIa ECD-Fc,0.0121 s⁻¹
same,kon,ActRIIa ECD-Fc,2.85e+06 M⁻¹ s⁻¹
same,Kd,BMPRII ECD-Fc,0.33 nM
same,koff,BMPRII ECD-Fc,0.00153 s⁻¹
same,kon,BMPRII ECD-Fc,4.63e+06 M⁻¹ s⁻¹
B2,binding result,[1],no binding (tested: 20 to 0.3 nM)
B3,binding result,[1],no binding (tested: 20 to 0.3 nM)
B4,binding result,[1],no binding (tested: 20 to 0.3 nM)
B5,binding result,[1],no binding (tested: 20 to 0.3 nM)
